The values that follow come from article PMC12302720 (The Journal of Biological Chemistry, 2025).

Assay [1] concerns the target T1, extracellular domain of cynomolgus CD47 (CyCD47 ECD) (cynomolgus).
T1 chain: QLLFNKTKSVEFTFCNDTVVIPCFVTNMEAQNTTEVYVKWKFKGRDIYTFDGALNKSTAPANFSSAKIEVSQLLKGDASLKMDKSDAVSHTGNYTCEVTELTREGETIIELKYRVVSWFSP
Description: ELISA.

Assay [2] concerns the target T2, extracellular domain of human CD47 (HuCD47 ECD) (human, UniProt Q08722).
T2 construct: human CD47 extracellular domain, amino acids Gln1-Pro121; source: bought: Acro Biosystems; not shown: His6, C-terminal, kept
Briefly: ELISA; plates coated with 1 ug/ml HuCD47 ECD or CyCD47 ECD in 0.1 M PBS; serially diluted antibodies, 37 °C, 2 h; bound antibody detected with anti-human Fc HRP. The note with it: both partners purified.

Assay [3] deals with T3, extracellular domain of cynomolgus CD47 (CyCD47 ECD) (Macaca fascicularis, UniProt A0A2K5X4I2).
T3 construct: cynomolgus CD47 extracellular domain; source: bought: Acro Biosystems
Briefly: BLI; Octet Red96; 5 ug/ml antibody held on anti-human IgG-Fc biosensors; 2-fold dilutions of HuCD47 ECD or CyCD47 ECD in 1 x PBS, 0.1% BSA, 0.02% Tween-20; 1:1 Langmuir global fit; apparent Kd. Particulars: both partners purified.

Assay [4] has as its target T2, extracellular domain of human CD47 …. The assay is described as above. The note with it: both partners purified.

B1: Hu5F9-G4, humanized mouse anti-human CD47 antibody (antibody, V domains shown)
VH: QVQLVQSGAEVKKPGASVKVSCKASGYTFTNYNMHWVRQAPGQRLEWMGTIYPGNDDTSYNQKFKDRVTITADTSASTAYMELSSLRSEDTAVYYCARGGYRAMDYWGQGTLVTVSS
VL: DIVMTQSPLSLPVTPGEPASISCRSSQSIVYSNGNTYLGWYLQKPGQSPQLLIYKVSNRFSGVPDRFSGSGSGTDFTLKISRVEAEDVGVYYCFQGSHVPYTFGQGTKLEIK
Turning to B1, the EC50 in assay [1] stood at 0.04 µg/mL.

B2: H3L2, humanized variant of 1C8 (antibody, V domains shown)
VH: QSVKESGGGLFQPGGSLRLSCSVSGFSLSSYAISWVRQAPGKGLEYIGYISSIGDPYYADWVKGRFTISRDSSTVYLQMTSLRAEDTAVYFCARSYPGNGDLGRLDIWGQGTTVTVSS
VL: DPQLTQSPSFVSASVGDRVTITCRSSQSVYRNKYLSWYQQKPGKAPKLLIYYASTLASGVPSRFSGSGSGTEFTLTISSVQPEDAATYYCAGDYSDDIENAFGQGTKVEIK
Take B2: the binding result in assay [2] is reported as “binds”.

B3: H4L2, humanized variant of 1C8 (antibody, V domains shown)
VH: QSVKESGGGLFQPGGSLRLSCSVSGFSLSSYAISWVRQAPGKGLEYIGYISSIGDPYYADWVKGRFTISRDNSKNTVYLQMTSLRAEDTAVYFCARSYPGNGDLGRLDIWGQGTTVTVSS
VL: DPQLTQSPSFVSASVGDRVTITCRSSQSVYRNKYLSWYQQKPGKAPKLLIYYASTLASGVPSRFSGSGSGTEFTLTISSVQPEDAATYYCAGDYSDDIENAFGQGTKVEIK
With B3, the binding result in assay [2] was “binds”.

B4: H4L3, humanized variant of 1C8 (antibody, V domains shown)
VH: QSVKESGGGLFQPGGSLRLSCSVSGFSLSSYAISWVRQAPGKGLEYIGYISSIGDPYYADWVKGRFTISRDNSKNTVYLQMTSLRAEDTAVYFCARSYPGNGDLGRLDIWGQGTTVTVSS
VL: DPMLTQSPSFLSASVGDRVTITCQSSQSVYRNKYLSWYQQKPGKAPKLLIYYASTLASGVPSRFSGSGSGTEFTLTISSLQPEDFATYYCAGDYSDDIENAFGGGTKVEIK
As for B4, the binding result in assay [3] is listed as “binds”. Besides, the “fold lower binding affinity than 1C8” value in assay [4] was found to be 3 fold.
